Reference: US12070483B2, “Compositions and methods for treatment of acute lung injury” (THE TRUSTEES OF THE UNIVERSITY OF PENNSYLVANIA, priority 2018, dated 2024)

Legend:
[1] = system: mouse models of LPS-induced ALI; settings: previous studies; cited from earlier work
recombinant hPrdx6 = target: T1, recombinant hPrdx6 (Homo sapiens, UniProt P30041); assay: aiPLA2 activity of recombinant human Prdx6 in presence of peptide; type: biochemical; settings: for aiPLA2 activity of recombinant hPrdx6: Table 1, hPrdx6 only (no peptide) 93.4; for aiPLA2 activity of human recombinant protein: Table 2, hPrdx6 only 92.0; for aiPLA2 activity of human recombinant Prdx6: Table 3, hPrdx6 only 99.91
T1 sequence (P30041 1-224): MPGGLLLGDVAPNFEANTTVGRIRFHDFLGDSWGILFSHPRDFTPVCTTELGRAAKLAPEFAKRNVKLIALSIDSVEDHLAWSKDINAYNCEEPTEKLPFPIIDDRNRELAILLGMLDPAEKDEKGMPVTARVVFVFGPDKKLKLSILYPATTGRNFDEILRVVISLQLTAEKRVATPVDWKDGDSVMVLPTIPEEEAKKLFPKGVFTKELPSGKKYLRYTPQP

Prdx6 = target: T2, Prdx6 (Mus musculus, UniProt O08709); assay: aiPLA2 (Prdx6-PLA2) activity of mouse lung homogenate after IT or IV injection of PIP; type: in vivo; settings: Table 6
T2 construct: from tissue; host or cells: mouse lung homogenate (wild type mice)
T2 sequence (O08709 1-224): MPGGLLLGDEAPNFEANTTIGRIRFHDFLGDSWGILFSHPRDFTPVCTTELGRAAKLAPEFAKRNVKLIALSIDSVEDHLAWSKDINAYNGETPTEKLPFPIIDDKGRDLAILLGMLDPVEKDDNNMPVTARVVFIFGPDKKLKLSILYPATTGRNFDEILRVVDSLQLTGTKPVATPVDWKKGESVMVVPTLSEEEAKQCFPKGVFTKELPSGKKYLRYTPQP
Protocol: FIG. 6: PIP-2 in liposomes was administered to mice either intratracheally (IT) or intravenously (IV) at 0 time. Lungs were harvested at intervals between 4 and 72 h after the PIP-2 administration, homogenized, and analyzed for Prdx6-PLA2 activity. PIP-2 is effective by either the IT or IV route with a calculated ½ time for recovery of ˜50 h. Results are mean+SE for N=3-4.
PIP-2 in liposomes injected IV or IT inhibits Prdx6 activity of the lung homogenate. Maximal inhibition was seen within 4 hours after administration of PIP-2. Recovery from inhibition began at ˜36 hours and was complete by 48 hours. Results are similar for PIP-1,2,4 (PIP-3 and -5 were not tested). […] Effectiveness requires liposomes for peptide delivery. Inhibition after IT or IV administration was similar.

NOX2 = assay: ROS production (Amplex red) of isolated perfused mouse lung stimulated with angiotensin II; type: in vivo; settings: mouse, ex_vivo
Protocol: FIGS. 5A and 5B: PIP-2, incorporated within liposomes, was instilled intratracheally prior to lung isolation. FIG. 5A: Isolated lungs were perfused in a recirculating system with artificial medium. NOX2 activity was stimulated by addition of angiotensin II (Ang II). Amplex red along with horseradish peroxidase were added to the perfusate for detection of ROS production. Aliquots of perfusate were analyzed at intervals by spectrophotometry to determine oxidation of amplex red, indicating ROS production. Results are mean±SE for N=3-4. FIG. 5B: Mice were sacrificed at 6, 12, or 24 h after LPS administration ([…]) and lungs were perfused in situ for 15 min with saline solution containing a fluorophore (difluorofluorescein diacetate, DFFDA). Lungs then were homogenized and fluorescence of the lung homogenate was determined as an index of ROS production. Results for FIG. 5A & FIG. 5B are mean±SE for N=4. *P<0.05 vs corresponding LPS and LPS+PIP-2; § P<0.05 vs 12 h and 24 h LPS; ΔP<0.05 vs corresponding LPS.
FIG. 8: PLA2 inhibitory peptide (PIP-2) inhibits ROS production stimulated by angiotensin II (Ang II) in isolated perfused mouse lung. PIP-2 (2 μg/g body weight) was administered to intact wild type (WT) mice by the IV route. […] After 30 mins, lungs were isolated from anesthesized mice and perfused in a recirculating system with added Ang II ([…]) as a Nox2 activator and Amplex red plus horseradish peroxidase to detect perfusate ROS. WT basal lungs were not stimulated with Ang II. After a 15 min equilibration period (called zero time), aliquots were taken at 15 min intervals for analysis of fluorescence. Each plotted point represents the mean±SE for n=3. The lines were drawn by the least mean squares method. The mean rates of ROS […] calculated from the slope of each line are indicated in parentheses. *P<0.05 vs the other 3 slopes.
FIG. 10: Effect of liposome composition on delivery of PIP-2 to lungs after IV administration. […]
The effect of the PIPs on ROS production in control (untreated) lungs was determined in vitro with isolated perfused lungs. […] The basal rate of ROS production was evaluated with WT lungs that were perfused in the absence of AngII. […] Aliquots of perfusate were taken at 15 min intervals and analyzed by fluorescence for resorufin (λexcitation 568 nm, λemission 581 nm), the product of Amplex red oxidation. The rate of Amplex red oxidation was calculated and expressed as arbitrary fluorescence units (AFU) with normalization to mouse body wt. There was a low rate of Amplex red oxidation in the absence of HRP in the perfusate (˜7% of the AngII-stimulated fluorescence), indicating a non-ROS-mediated oxidation of the fluorophore; this value was subtracted to obtain the reported values.

## CCCCCCCCCCCCCCCCOCC(COCC(F)(F)F)OP(=O)(O)OC (centres unmarked) [MJ33]
[1]
  protection in LPS-induced ALI: protection

## DEELQATLHDFRHQIL (Inhibitory peptide.) [PIP-1, 16 residue human peptide]
Recombinant hPrdx6
  aiPLA2 activity of recombinant hPrdx6: 45.0 nmol/min/mg prot.
Prdx6; IT, lungs lavaged prior to assay, 0 post injection
  Prdx6-PLA2 activity of mouse lung homogenate: 9.0 ± 0.2 nmol/hr/mg protein
Prdx6; IT, lungs lavaged, 4 hr post injection
  Prdx6-PLA2 activity of mouse lung homogenate: 1.6 ± 0.1 nmol/hr/mg protein
Prdx6; IT, lungs lavaged, 12 hr post injection
  Prdx6-PLA2 activity of mouse lung homogenate: 1.6 ± 0.1 nmol/hr/mg protein
Prdx6; IT, lungs lavaged, 24 hr post injection
  Prdx6-PLA2 activity of mouse lung homogenate: 1.7 ± 0.2 nmol/hr/mg protein
Prdx6; IT, lungs lavaged, 48 hr post injection
  Prdx6-PLA2 activity of mouse lung homogenate: 2.9 ± 0.2 nmol/hr/mg protein
Prdx6; IV, 0 post injection
  Prdx6-PLA2 activity of mouse lung homogenate: 8.8 ± 0.3 nmol/hr/mg protein
Prdx6; IV, 4 hr post injection
  Prdx6-PLA2 activity of mouse lung homogenate: 1.4 nmol/hr/mg protein
Prdx6; IV, 12 hr post injection
  Prdx6-PLA2 activity of mouse lung homogenate: 1.5 nmol/hr/mg protein
Prdx6; IV, 24 hr post injection
  Prdx6-PLA2 activity of mouse lung homogenate: 1.8 ± 0.1 nmol/hr/mg protein

## DEELQTEL [SEQ ID NO: 18]
Recombinant hPrdx6
  aiPLA2 activity of recombinant hPrdx6: 93.6 nmol/min/mg prot.

## DEELQTELYEI (Inhibitory peptide.) [SEQ ID NO: 17]
Recombinant hPrdx6
  aiPLA2 activity of recombinant hPrdx6: 94.9 nmol/min/mg prot.

## DEELQTELYEIK (Inhibitory peptide.) [SEQ ID NO: 16]
Recombinant hPrdx6
  aiPLA2 activity of recombinant hPrdx6: 95.7 nmol/min/mg prot.

## DEELQTELYEIKHQ (Inhibitory peptide.) [SEQ ID NO: 15]
Recombinant hPrdx6
  aiPLA2 activity of recombinant hPrdx6: 102 nmol/min/mg prot.

## DEELQTELYEIKHQIL (Inhibitory peptide.) [PIP-3, 16 residue rat, mouse peptide]
Recombinant hPrdx6
  aiPLA2 activity of recombinant hPrdx6: 32.0 nmol/min/mg prot.
  aiPLA2 activity of human recombinant protein: 32.0 nmol/min/mg prot.
Recombinant hPrdx6; listed as SEQ ID NO: 9
  aiPLA2 activity of recombinant hPrdx6: 20.1 nmol/min/mg prot.

## ELQTELYEIKHQIL (Inhibitory peptide.) [SEQ ID NO: 10]
Recombinant hPrdx6
  aiPLA2 activity of recombinant hPrdx6: 33.2 nmol/min/mg prot.

## ELYEIKHQI (Inhibitory peptide.) [SEQ ID NO: 22]
Recombinant hPrdx6
  aiPLA2 activity of human recombinant protein: 93.5 nmol/min/mg prot.

## ELYEIKHQIL (Inhibitory peptide.) [SEQ ID NO: 12]
Recombinant hPrdx6
  aiPLA2 activity of recombinant hPrdx6: 28.6 nmol/min/mg prot.

## IKHQIL (DEELQTELYEIKHQ; Inhibitory peptide.) [SEQ ID NO: 14]
Recombinant hPrdx6
  aiPLA2 activity of recombinant hPrdx6: 97.1 nmol/min/mg prot.

## LFKLEHQIL [SN023]
Recombinant hPrdx6
  aiPLA2 activity of human recombinant Prdx6: 97.95 nmol/min/mg prot.

## LHDFRDQIL [SN024]
Recombinant hPrdx6
  aiPLA2 activity of human recombinant Prdx6: 102.04 nmol/min/mg prot.

## LHDFRHNIL [SN026]
Recombinant hPrdx6
  aiPLA2 activity of human recombinant Prdx6: 98.97 nmol/min/mg prot.

## LHDFRHQI [SEQ ID NO: 21]
Recombinant hPrdx6
  aiPLA2 activity of human recombinant protein: 93.6 nmol/min/mg prot.

## LHDFRHQLL (LHDFRHQTL; Inhibitory peptide.) [SN028]
Recombinant hPrdx6
  aiPLA2 activity of human recombinant Prdx6: 102.45 nmol/min/mg prot.

## LHDFRPQIL [SN025]
Recombinant hPrdx6
  aiPLA2 activity of human recombinant Prdx6: 101.34 nmol/min/mg prot.

## LHEFKHQIL [SN022]
Recombinant hPrdx6
  aiPLA2 activity of human recombinant Prdx6: 99.42 nmol/min/mg prot.

## LKIEYHQIL [SN019]
Recombinant hPrdx6
  aiPLA2 activity of human recombinant Prdx6: 97.67 nmol/min/mg prot.

## LRFDHHQIL [SN020]
Recombinant hPrdx6
  aiPLA2 activity of human recombinant Prdx6: 98.97 nmol/min/mg prot.

## LYDIRHQIL (Inhibitory peptide.) [PIP-5]
NOX2
  ROS production by AngII-activated NOX2 in the isolated mouse lung: inhibit ROS production
Recombinant hPrdx6
  aiPLA2 activity of human recombinant Prdx6: 29.74 nmol/min/mg prot.

## LYEIKHQI [SEQ ID NO: 23]
Recombinant hPrdx6
  aiPLA2 activity of human recombinant protein: 92.1 nmol/min/mg prot.

## QTELYEIKHQIL (Inhibitory peptide.) [SEQ ID NO: 11]
Recombinant hPrdx6
  aiPLA2 activity of recombinant hPrdx6: 31.5 nmol/min/mg prot.

## TLHDFRHQI (Inhibitory peptide.) [SEQ ID NO: 20]
Recombinant hPrdx6
  aiPLA2 activity of human recombinant protein: 89.6 nmol/min/mg prot.

## TLHDFRHQIL (Inhibitory peptide.) [SEQ ID NO: 19]
Recombinant hPrdx6
  aiPLA2 activity of human recombinant protein: 31.5 nmol/min/mg prot.

## YEIKHQIL (Inhibitory peptide.) [SEQ ID NO: 13]
Recombinant hPrdx6
  aiPLA2 activity of recombinant hPrdx6: 94.4 nmol/min/mg prot.
